In test [1] the target is T1, GST 택(tag)이 달린 IL-33 (human, UniProt O95760 112-270).
T1 construct: also called GST-IL-33; 재조합 GST-IL-33; not shown: Glutathione S-transferase (GST) tag; It is N-terminal, since stop codons pla
T1 sequence: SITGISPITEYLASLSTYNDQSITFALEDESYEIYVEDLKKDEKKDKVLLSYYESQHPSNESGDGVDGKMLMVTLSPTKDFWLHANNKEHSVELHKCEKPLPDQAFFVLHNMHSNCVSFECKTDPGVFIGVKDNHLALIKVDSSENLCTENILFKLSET
The test can be described thus: ELISA, antigen fixed and scFv titrated.

Test [2] concerns the target IL-1b (UniProt P01584 117-269). Description: immunoblot, C2_2E12 as primary antibody, anti-HA-HRP as secondary. (In general: Immunoblotting shows a protein as a band on a membrane.)
The target in test [3] is IL-6 (UniProt P05231 30-212). Described as above.
Test [4] has as its target T2, BSA (UniProt P02769 25-607).
T2 construct: Unrelated control protein in the immunoblot
Described as above.

Where a chain is given by its changes, count along the chain named.

T2 sequence (P02769 25-607 limits assumed): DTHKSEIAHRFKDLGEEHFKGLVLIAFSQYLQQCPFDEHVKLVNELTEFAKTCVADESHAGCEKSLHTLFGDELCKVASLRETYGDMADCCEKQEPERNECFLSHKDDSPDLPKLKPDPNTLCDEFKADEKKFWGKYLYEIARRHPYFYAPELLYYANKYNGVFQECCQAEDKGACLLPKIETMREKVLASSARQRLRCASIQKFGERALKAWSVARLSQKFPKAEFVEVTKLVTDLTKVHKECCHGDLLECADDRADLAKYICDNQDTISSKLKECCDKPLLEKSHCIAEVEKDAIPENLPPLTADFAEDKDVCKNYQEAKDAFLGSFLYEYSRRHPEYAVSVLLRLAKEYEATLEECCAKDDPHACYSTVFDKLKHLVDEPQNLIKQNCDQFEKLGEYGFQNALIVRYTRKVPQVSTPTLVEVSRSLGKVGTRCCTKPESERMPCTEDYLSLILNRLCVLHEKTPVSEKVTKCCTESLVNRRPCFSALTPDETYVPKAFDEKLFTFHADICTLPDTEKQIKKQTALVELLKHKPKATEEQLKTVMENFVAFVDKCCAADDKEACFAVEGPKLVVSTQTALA

B1: C2_2H5 (scFv)
scFv: EVQLLESGGGLVQPGGSLRLSCAASGFTFSSYYMSWVRQAPGKGLEWVSAISPGSSNKYYADSVKGQFTISRDNSKNTLYLQMNSLRAEDTAVYYCAKLSQSFDYWGQGTLVTVSSGGGGSGGGGSGGSGSQSVLTQPPSASGTPGQRVTISCTGSSSNIGNNGISWYQQLPGTAPKLLIYDNSHRPSGVPDRFSGSKSGTSASLAISGLRSEDETDYYCASWDSSLSGYVFGGGTKLTVLGQAGQHHHHHHGAYPYDVPDYAS
notes: scFv clone from a synthetic human scFv phage library; also called Anti-IL-33 scFv C2_2H5
Broadly, the Kd is the free concentration of one partner at which half of the binding sites on the other are occupied at equilibrium, for simple one-to-one binding. High values mean a looser complex, low ones a tighter complex. B1 came in with a Kd in test [1] of 0.031 µM.

B2: C2_2E12 (scFv)
scFv: EVQLLESGGGLVQPGGSLRLSCAASGFTFSSYYMSWVRQAPGKGLEWVSAISPGSSNKYYADSVKGRFTISRDNSKNTLYLQMNSLRAEDTAVYYCARLTLSFDYWGQGTPVTVSSGGGGSGGGGSGGGGSQSVLTQPPSASGTPGQRVTISCSGSSSNIGSNDVSWYQQLPGTAPKLLIYADSKRPSGVPDRFSGSKSGTSASLAISGLRSEDEADYYCASWDSSLSAYVFGGGTKLTVLG
notes: The recombinant scFv was purified on Ni-NTA agarose and detected with anti-HA-HRP, so the protein tested probably carried His and HA tags; also called Anti-IL-33 scFv C2_2E12; 재조합 C2_2E12 scFv 항체
On to B2, for which, in test [1], the Kd came out at 0.028 µM. The binding result is recorded as “no binding (tested: 0.5 mg/ml, 1:100 희석)” in test [2]; “no binding (tested: 0.5 mg/ml, 1:100 희석)” in test [3]; “no binding (tested: 0.5 mg/ml, 1:100 희석)” in test [4].

B3: C2_1D5 (scFv)
scFv: EVQLLESGGGLVQPGGSLRLSCAASGFTFSSYYMSWVRQAPGKGLEWVSAISPGSSNKYYADSVKGRFTISRDNSKNTLYLQMNSLRAEDTAVYYCARLLSAFDYWGQGTLVTVSSGGGGSGGGGSGGGGSQSVLTQPPSASGTPGQRVTISCSGSSSNIGSNDVSWYQQLPGTAPKLLIYSDSNRPSGVPDRFSGSKSGTSASLAISGLRSEDEADYYCGAWDSSLSGYVFGGGTKLTVLGQAGQHHHHHHGAYPYDVPDYAS
notes: scFv clone from a synthetic human scFv phage library; also called Anti-IL-33 scFv C2_1D5
Molecule B3 gave a Kd in test [1] of 0.036 µM.

B4: C2_2E1 (scFv)
scFv: B3 scFv with K43R, L99M, L100T, A102S, S162N, N185Q, A222S, S225Y, G229A
notes: scFv clone from a synthetic human scFv phage library; also called Anti-IL-33 scFv C2_2E1
Take B4: binding in test [1] was put at a Kd of 0.035 µM.

B5: C1_1E1 (scFv)
scFv: B3 scFv with R98K, L100T, G120D, S154T, S166T, S184N, N185K, D214E
notes: scFv clone from a synthetic human scFv phage library; also called Anti-IL-33 scFv C1_1E1
In test [1], B5 yielded a Kd of 0.048 µM.

B6: C2_2A10 (scFv)
scFv: EVQLLESGGGLVQPGGSLRLSCAASGFTFSSYYMSWVRQAPGKGLEWVSAISPGSSNKYYADSVKGRFTISRDNSKNTLYLQMNSLGAEDTAVYYCAKLLTGFDYWGQGTLVTVSSGGGGSGGGGSGGGGSQSVLTQPPSASGTPGQRVTISCSGSSSNIGNNAVSWYQQLPGTAPKLLIYDDNHRPSGVPDRFSGSKSGTSASLAISGLRSEDEADYYCGTWDSSLSAYVFGGGTKLTVLGQAGQHHHHHHGAYPYDVPDYAS
notes: scFv clone from a synthetic human scFv phage library; also called Anti-IL-33 scFv C2_2A10
As to B6, the Kd in test [1] worked out at 0.057 µM.

The record behind these values is patent publication KR20220022226A (dated 2022).
